Measurements taken from patent US20250163166A1.
pKd: −log10 of the molar value.

Columns and labels:
[1] = target: human FCγRIIIa receptor (human) (UniProt P08637); test: BLI; Ratio of the hIgG (hIgG1) control against itself
[2] = target: human FCγRIIIa receptor (human) (UniProt P08637); test: BLI (Octet 96), antibody loaded on sensor, FCγRIIIa 200 nM and 2-fold dilutions in solution

human FCγRIIIa receptor (human), sequence (P08637 17-208 limits assumed): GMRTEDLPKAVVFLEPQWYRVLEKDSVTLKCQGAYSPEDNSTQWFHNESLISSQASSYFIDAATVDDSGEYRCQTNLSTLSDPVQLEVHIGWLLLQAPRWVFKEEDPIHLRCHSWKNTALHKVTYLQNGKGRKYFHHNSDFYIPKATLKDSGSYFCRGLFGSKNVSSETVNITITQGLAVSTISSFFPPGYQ

Ratio [1]: 1
pKd [2]: 7.05
Substance: control sample hIgG1 (antibody)
